Results published in patent publication US6130078.

System: NspHI restriction endonuclease (NspHIR) (Nostoc sp. (ATCC 29106))
Assay: cleavage_in_vitro
Settings: cell extract dilutions 10^-1 to 10^-5 on lambda DNA

Work on bacteriophage lambda DNA yielded an activity (units per g wet cells) of 186000.
